Measurements from patent US8846363B2, “Compositions of and methods of using sulfatases from Flavobacterium heparinum” (priority 2007, dated 2014).
Each block holds one molecule with its values, some of them ahead of it.

Experiments:
[1] = Effect of pH on 6-O-sulfatase activity by capillary electrophoresis; assay type: biochemical
Protocol: Initial assessment of substrate specificity and pH optima was made using a capillary electrophoresis-based assay for the detection of desulfated products. Preliminary enzyme activity was measured against the following series of fluorescently derivatized, monosulfated gluco and galactopyranosides: 4-MU-GlcNAc,6S, 4-MU-GlcNS, 4-MU-GalNAc,6S and 4-MU-Gal6S. Standard reactions included 1 mM substrate, 1-10 μM enzyme, 50 mM sodium acetate, pH 5.5-6.5 and 5 mM CaCl2 in a 20 μL reaction volume. For pilot experiments, exhaustive reactions involved overnight incubations at 30° C. Enzyme was inactivated by heat denaturation at 95° C. for 10 minutes, followed by a 10-fold dilution into water. Reaction products were resolved by capillary electrophoresis using a 25 cm long, 75 μm (i.d.) fused silica capillary (Agilent Technologies, Palo Alto, Calif.). […] Substrate desulfation was measured as a percentage of substrate depletion relative to a minus enzyme control as monitored by the loss of UV absorbance at 315 nm detected at approximately 4 minutes. […]
The effect of pH was likewise measured by capillary electrophoresis using the following three sets of buffers with overlapping pH ranging from 4.5 to 8.0:50 mM sodium citrate at 4.5, 5.0, and 5.5; 50 mM MES at 5.5, 6.0, 6.5 and 7.0; and 50 mM MOPS at 6.5, 7.0, 7.5, and 8.0. […]

[2] = substrate: Cc1cc(=O)oc2cc(O[C@H]3O[C@H](CO)[C@@H](O)[C@H](O)[C@H]3NS(=O)(=O)O)ccc12; test: Steady-state kinetics, coupled N-sulfamidase/α-glucosidase fluorimetric assay with 4-MU-GlcNS; assay type: biochemical, Flavobacterium heparinum (Pedobacter heparinus)
Source text: Recombinant protein expression in the E. coli strain BL21(DE3) and one-step affinity purification by nickel chelation chromatography were as described for 2-O-sulfatase (Myette et al., 2003 J Biol Chem 278, 12157-12166). The prediction of NH2-terminal signal sequences and putative cleavage sites for the two respective proteins was made by the Von Heijne computational method (Nielsen et al., 1997 Protein Eng 10, 1-6.). Engineering and expression of these truncated proteins (minus signal sequences) were as described above for the full-length genes with the exception of substituting the 5′ primers which were used in the original PCR amplification step. These internal primers included 5′ TCTAGACATATGTCTTGCCAGCAGCCTAAAC 3′ (for ORF B; SEQ ID NO: 15) and 5′ TCTAGACATATGTCCTGCACTTCGCCGGAA 3′ (for ORF C; SEQ ID NO: 16), with the Nde 1 site underlined. As such, the ORF B gene sequence begins at Met 18 (FIG. 1). Likewise, the ORF C gene sequence begins at Ser 21 (FIG. 2). Removal of the 6×His tag was achieved by site-specific protease cleavage using the thrombin cleavage capture kit (Novagen, San Diego, Calif.). Proteolysis conditions were generally as described for other recombinantly expressed flavobacterial heparin degrading enzymes. […]
Indirect measurement of enzyme activity was also made using a fluorimetrically-based plate assay in which the prerequisite desulfation of the appropriate glucopyranoside 1→4 methlybelliferone substrate by either the 6-O-sulfatase or N-sulfamidase was coupled to the glucosidase-mediated hydrolysis of the stereo-specific 1→4 glycosidic linkage between the pyranose ring and the adjoining fluorophore. Release of the free fluorophore (4-MU) was monitored spectroscopically as described above for the arylsulfatase assay using 4-MU sulfate. […] Reaction conditions were optimized to satisfy three related criteria: 1) linear readout of fluorescent signal which is directly proportional to sulfatase activity; 2) quantitative release of 4-MU by glucosidase activity under every biochemical condition examined and; 3) negligible fluorescent quenching of the free chromophore.
Coupled N-sulfamidase assay was generally described for the 6-O-sulfatase, but with the following modifications: 4-MU-GlcNS as substrate, 50 mM sodium acetate at pH 6.0 (instead of 5.5) and 1 μM enzyme. […] The obvious difference in enzyme efficacies between α-glucosidase versus β-glucosidase is reflected in the substantially longer incubation times required for the α-glucosidase to quantitatively hydrolyze the glycosidic α1→4 linkage between the fluorophore and the desulfated glucosamine. […]

[3] = other: Addition: 0.5 mM Ca^+2, pH 6.0, 37.0 °C
[4] = other: Addition: 5 mM Ca^+2, pH 6.0, 37.0 °C

activity below pH 4.5 ([1]; below pH 4.5): Neither enzyme was active
activity in acetate buffer compared to sulfonate buffers (MES, MOPS) ([1]; same pH range): higher activity in acetate buffer
B1: Flavobacterium heparinum 6-O-sulfatase (ORF B), recombinant, NH2-terminal truncation lacking signal sequence, SEQ ID NO: 2 (Pedobacter heparinus DSM 2366) (protein)
chain: TLMSCQQPKPAESAKRPNIVFIMTDDHTIQAISAYGSKLVKTPNLDRIANEGMLFNNCFVTNAVCGPSRATILTGKYSHLNGLTDNSKVFDSTQVIYPQLLKKAGYQTAMIGKWHLGSTPMGFDYYSILPNQGQYYQPEFIENGHLVKEKGYVTDLITDKAIGFLEKRDHDKPFLMIYQHKAPHRNWLPAPRHLGMFDDTVFPEPANLLDDFKGRGRAAKEQLMNISTDMWPAWDLKMLSTAQLDSMAKLPVSPKFKDAKGDDYQQANDPSLDKARFFEVYNRMTDAEKVQWRKVYDKRVAEFKRLNPKGADLVRWKYQQYMRDYLACVVSVDENVGRLMDYLKKIGELDNTIIVYTSDQGFYLGEHGYFDKRFMYDESFRTPLMVRYPPSVKAGSVSNAFAMNLDFAPTLLDYAGVKIPADMQGLSLRPVLDNAGKSPENWRKAVYYHYYEFPSWHMVKRHYGIRTERYKLIHFYNDIDEWELYDMQKDPHEMQNLYNDKAYEPIIKDLKVQMKKLQVQYKDTNPTEAL
notes: E. coli BL21(DE3), N-terminal 6xHis removed by thrombin

B2: Flavobacterium heparinum N-sulfamidase (ORF C), recombinant, NH2-terminal truncation lacking signal sequence, SEQ ID NO: 4 (Pedobacter heparinus DSM 2366) (protein)
chain: SCTSPEKKTDRPNILMIMSDNQSWNHVGSYGDQTVRTPNMDRIAKEGVRFTNAFCSSPSCTPARAGMLTGQDIWRLEDGGNLWGVLPVKYKVYPDLLEEAGYAIGFQGKGWGPGSFEANKRPRNPAGNEFKSFGAFLKDKKEGPWCYWISSHEPHRPYVEGSGEKAGIDPNKVKVPAYLPDHISIRKDIADYYAAVETFDRELGEALDQLKASGELDNTVIVVCSDNGWQMPRGLANLYDFGTHVPLIISWPGKFKQDVVADNLVTLNDLAPTFLQLGKVPVPADMTGKSLLPIVEAGKKDEKPRDYVVLGRERHAFVRRHGLGYPGRAIRTKDYLYIKNYEPNRWPAGDPPFYGDIDPYMFNWPGETKYYLIEHKDDPKVKSFFELGMGKRPAEELFDINKDPDELHNLAALPEYQKIKQELVAKLRNYLVATKDPRETNGNIQIWDTAAYFSEIDKTPKPSKEMQKRFKLDSSYNYLK
notes: as for B1
Km [2, 3]: 45 µM
kcat [2, 3]: 5.1 min⁻¹
Km [2, 4]: 178 µM
kcat [2, 4]: 21.9 min⁻¹
